Changes are numbered by the printed parent chain. Numbers in names are those of the source.
T1: human IL-11Rα (human, UniProt Q14626 23-363, limits assumed)
T1 construct: Protein coated on ELISA plates and used in solution for BLI; also called hIL-11Rα; hIL-11R
T1 sequence: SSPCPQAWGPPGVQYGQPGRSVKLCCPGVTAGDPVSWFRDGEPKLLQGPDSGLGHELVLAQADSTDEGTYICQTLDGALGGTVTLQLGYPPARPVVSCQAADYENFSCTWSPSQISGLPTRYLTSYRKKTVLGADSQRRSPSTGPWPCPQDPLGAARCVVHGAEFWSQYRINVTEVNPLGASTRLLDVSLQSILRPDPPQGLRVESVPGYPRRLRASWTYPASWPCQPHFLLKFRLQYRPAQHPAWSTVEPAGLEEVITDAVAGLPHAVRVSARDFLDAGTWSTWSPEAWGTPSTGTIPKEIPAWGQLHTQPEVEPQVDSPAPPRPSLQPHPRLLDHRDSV

T2: IL-11R on STAT3 Reporter (Luciferase)-HEK293 cells (UniProt Q14626 23-422)
T2 sequence (looked up): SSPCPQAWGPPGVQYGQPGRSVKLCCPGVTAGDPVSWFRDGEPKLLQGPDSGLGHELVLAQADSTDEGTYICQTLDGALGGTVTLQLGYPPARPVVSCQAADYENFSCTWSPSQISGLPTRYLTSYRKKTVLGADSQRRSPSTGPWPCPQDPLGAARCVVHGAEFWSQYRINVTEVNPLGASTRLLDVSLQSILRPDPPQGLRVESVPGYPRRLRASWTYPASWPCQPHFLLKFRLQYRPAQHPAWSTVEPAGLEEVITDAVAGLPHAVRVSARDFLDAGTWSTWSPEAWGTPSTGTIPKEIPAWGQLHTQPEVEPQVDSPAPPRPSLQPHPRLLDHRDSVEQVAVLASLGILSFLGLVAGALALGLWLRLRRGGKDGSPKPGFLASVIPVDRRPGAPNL

B1: mAb5 (antibody, V domains shown)
VH: EVQLLESGGGLVQPGGSLRLSCAASGFTFSWYSMTWVRQAPGKGLEWVSSIVPYGDLTQYADSVKGRFTISRDNSKNTLYLQMNSLRAEDTAVYYCAKGPGWGSFDLWGRGTLVTVSS
VL: DIQMTQSPSSLSASVGDRVTITCQASQDINNYLNWYQQKPGKAPKLLIYDASNLQTGVPSRFSGSGSGTDFTFTISSLQPEDIATYYCQQHESQSPTFGPGTKVDIK
notes: Expressed as human IgG4 (S228P EU); also called mAb5 IL11RA Ab
B2: mAb6 (antibody, V domains shown)
VH: B1 VH
VL: B1 VL with S93F
notes: Expressed as human IgG4 (S228P EU)
B3: mAb2 (antibody, V domains shown)
VH: B1 VH with Y54S, D56G, L57H, G101D
VL: B1 VL with S93F
notes: as for B2
B4: mAb3 (antibody, V domains shown)
VH: B1 VH with G101D
VL: B1 VL
notes: as for B2
B5: mAb15 (antibody, V domains shown)
VH: B1 VH
VL: B1 VL with S93T, S95T
notes: as for B2
B6: mAb4 (antibody, V domains shown)
VH: B1 VH with G101D
VL: B1 VL with S93F
notes: as for B2

How the values were obtained:
[1] = test system: type VI collagen formation (PRO-C6) in fibrotic human PCLS; test: Fibrotic human precision-cut lung slice (PCLS) model, PRO-C6 biomarker of ECM remodeling; type: cell-based; settings: 48 hours
Experimental: Studies were performed to evaluate the effect of the mAb5 antibody on biomarkers reflecting ECM remodeling in a fibrotic human precision-cut lung slice (PCLS) model. The anti-fibrotic effect was investigated at three different concentrations in human ex vivo lung tissue slices prepared from pulmonary fibrosis patients.
Tissue slices were prepared from the subpleural and central region of the fibrotic lung from two human end-stage donors with pulmonary fibrosis (IPF and secondary fibrosis) (see, for example, Hess et al., Toxicol In Vitro. 32:347-61, 2016). For both donors, lung tissue samples from two different regional areas (subpleural and central) were used to generate tissue cores used for PCLS. Adjacent cores were used to achieve serial PCLS for the analysis of one treatment as compared to medium treated PCLS from the same cores. This enables the comparison of densely packed fibrotic areas with fibrotic foci with less affected areas. To ensure the fibrotic status, clinical/demographic information for each patient is provided.
Each treatment was tested with three replicates for each lung region and for each donor.
Preparation and incubation of precision-cut lung slices. Lung lobes were canuled and filled with 37° C. warm 2% low-melting agarose/medium solution. Filled lobes were cooled on ice to polymerise agarose. Tissue cores with a diameter of 8 mm were prepared and cut into approximately 300 μm thick slices using a microtome (Krumdieck tissue slicer, Alabama Research and Development, Muniford, AL, USA or Vibratome OTS-5000, Science Services GmbH, Munich) in Earle's Balanced Salts Solution (EBSS). Tissue slices were incubated in Dulbecco's modified Eagle's medium/nutrient mixture F-12 Ham (DMEM) with L-glutamine and 15 mM HEPES without phenol red. Tissue slices were transferred into petri dishes and washed with DMEM for 2 hours. Medium was changed four times every 30 minutes in order to remove cell debris.
Two PCLS per well were left over night in 500 μL DMEM in 24-well plates for a final washing step. Next day, PCLS were treated with experimental treatments or controls (see Table E5) in 250 μl DMEM/F-12 culture medium for 48 hours under normal cell culture conditions (37° C., 5% CO2). Medium contained 100 units/mL penicillin and 100 μg/mL streptomycin and was not supplemented with fetal calf serum.
After incubation for 48 hours, supernatants were collected, proteinase inhibitor cocktail (0.2%) was added and samples were frozen to −80° C. Additionally, the two PCLS from each well were transferred to a 2 mL safe-lock tube, snap-frozen in liquid nitrogen immediately, and stored at −80° C. Samples from the three replicates for each condition were not pooled.
Extracellular matrix remodeling evaluation. Biomarkers that reflect ECM remodeling were assessed in supernatant by Nordic Bioscience using the following competitive ELISA: PRO-C6 (C-terminal of type VI collagen C5 domain released as type VI collagen is incorporated into the matrix; measured on mesoscale platform [hsPRO-C6]): Reflects type VI collagen formation. Type VI collagen is a beaded filament collagen mainly found in the interface between the interstitial matrix and the basement membrane.
Statistics. […] Pooled data are presented as percentage of the “no treatment” control, calculated for individual regions and donors. Statistical significant differences were evaluated on pooled data by Kruskal-Wallis with Dunn's multiple comparisons test, comparing to the “no treatment” control. […]

human IL-11Rα [2] = target: T1, human IL-11Rα; test: competitive ELISA, IL-11R coated on plate; competitor: biotinylated TS7 (0.1 µg/mL)
Experimental: (§1) Relative binding activity of the antibodies was tested by competitive ELISA using biotinylated mAbs 8E2 or TS7. Antibodies 8E2 and TS7 were biotinylated using sulfo-NHS Biotin (Thermo Fisher) per the manufacturer's instructions. IL-11R was coated onto ELISA plates (Nunc, MaxiSorp) at 2 μg/mL in PBS, and plates were blocked with 2% BSA in PBS. After washing the plate with water, antibodies to be tested were titrated across the plate in a final volume of 90 μL followed by addition of 10 μL of biotinylated 8E2 or biotinylated TS7, as indicated in Table E1 (0.1 μg/mL final concentration) to each well. Plates were incubated for 2 hours on a plate-shaker, followed by washing and addition of 100 μL/well of streptavidin-HRP (Jackson ImmunoResearch, 1/1000 dilution). After a further 1 hour incubation, plates were washed, developed with Ultra-TMB HRP substrate (Thermo Fisher), and stopped by the addition of 50 μL/well of 2 M sulfuric acid. Plates were read at 450 nm on an iD5 plate reader (Molecular Devices).

human IL-11Rα [3] = target: T1, human IL-11Rα; test: BLI (Octet RED96e), mAb on protein G biosensors, hIL-11Rα in solution
Experimental: Association was carried out in the presence of a 2-fold dilution series of hIL-11Rα and was allowed to proceed for 120 seconds; dissociation was measured for 300 to 1200 seconds.

human IL-11Rα [4] = target: T1, human IL-11Rα; test: competitive ELISA, IL-11R coated on plate; competitor: biotinylated 8E2 (0.1 µg/mL)
Experimental: as §1

human IL-11Rα [5] = target: T1, human IL-11Rα; test: BLI (Octet RED96e), mAb on anti-human constant domain (AHC) biosensors, hIL-11R in solution
Description: A further series of antibodies were designed in which the residue at Kabat position 31 of the heavy chain was varied (mAbs 16-32). In this case an alternate biolayer interferometry assay was used to initially rank the antibodies compared to mAb5, the closest relative in sequence to mAbs 16-32. MAbs were loaded onto anti-human constant domain (AHC) biosensors (FortdBio) in 10× kinetics buffer consisting of PBS, 0.1% BSA, 0.02% Tween 20 for 120 s to achieve a spectral shift value of 0.8 to 1.2 nm. Association was carried out in the presence of 2-fold dilution series of hIL-1 IR and was allowed to proceed for 120 s. Dilution series started 10 nM. The dissociation in 10× kinetics buffer for 1200 s. Binding kinetic measurements were taken on an Octet RED96e instrument.

[6] = target: T2, IL-11R on STAT3 Reporter …; test: cell-based or functional assay

| Molecule | Kd (human IL-11Rα [3]) | koff (human IL-11Rα [3]) | kon (human IL-11Rα [3]) | IC50 (human IL-11Rα [4]) | IC50, STAT3 luciferase reporter assay (HEK293), inhibiting IL-11, Assay 1 [6] | IC50, STAT3 luciferase reporter assay (HEK293), inhibiting IL-11, Assay 2 [6] | IC50, STAT3 luciferase reporter assay (HEK293), inhibiting IL-11, Mean [6] | further results |
| --- | --- | --- | --- | --- | --- | --- | --- | --- |
| COC(=O)c1ccc2c(c1)NC(=O)/C2=C(\Nc1ccc(N(C)C(=O)CN2CCN(C)CC2)cc1)c1ccccc1 [nintedanib, Nintedanib, reference compound] | – | – | – | – | – | – | – | effects on ECM remodeling ([1]; fibrotic human PCLS): ECM remodeling could be reduced; median levels of PRO-C6 compared to the no treatment (media) control ([1]; pooled data all donors and regions, mAb5 0.3, 3.0, 30 μg/mL, nintedanib 1 μM, isotype control 30 μg/mL): decreased |
| B1 | < 1 pM | < 1e-07 s⁻¹ | 63700 M⁻¹ s⁻¹ | 1.4 µg/mL | 0.16 µg/mL | 0.18 µg/mL | 0.17 µg/mL | IC50 (human IL-11Rα [2]): 2.1 µg/mL; Kd (human IL-11Rα [5]): 50 pM; koff (human IL-11Rα [5]): 2.5e-05 s⁻¹; kon (human IL-11Rα [5]): 490000 M⁻¹ s⁻¹ |
| B2 | < 1 pM | < 1e-07 s⁻¹ | 800000 M⁻¹ s⁻¹ | 1.5 µg/mL | 11 µg/mL | 0.39 µg/mL | 5.7 µg/mL | – |
| B3 | – | – | – | > 30 µg/mL | – | – | – | – |
| B4 | – | – | – | 2.8 µg/mL | – | – | – | – |
| B5 | < 1 pM | < 1e-07 s⁻¹ | 84000 M⁻¹ s⁻¹ | – | 0.38 µg/mL | 0.33 µg/mL | 0.36 µg/mL | IC50 (human IL-11Rα [2]): 1.7 µg/mL |
| B6 | – | – | – | 5.5 µg/mL | – | – | – | – |
